This note sets out measurements from article doi:10.1101/2023.10.29.564595, “The N-terminal region of DNMT3A combines multiple chromatin reading motifs to guide recruitment”.

The target in the series is DNMT3A1 1-427 R181A/R183A (human, UniProt Q9Y6K1 1-427, R181A;R183A). Nature of the series: EMSA; only marginally affected; EMSA: 15 mM HEPES pH 7.5, 75 mM NaCl, 0.05% Triton X-100, 0.05 mg/mL BSA, 10% glycerol, 1 mM DTT, 0.5 mg/mL salmon sperm DNA (nucleosomes), 2.4 nM tracer, 1 h on ice; full-length complex: 17.5 mM HEPES pH 8, 150 mM NaCl, 1.5 mM MgCl2, 2.5% glycerol, 1 mM DTT, 0.1 mg/mL BSA, on ice. Particulars: protein: recombinant; tags: His-MBP; label: 5' 6-FAM; blunt. (In EMSA bound probe runs differently from free probe, usually more slowly.)
DNMT3A1 1-427 R181A/R183A, sequence (Q9Y6K1 1-427 R181A/R183A): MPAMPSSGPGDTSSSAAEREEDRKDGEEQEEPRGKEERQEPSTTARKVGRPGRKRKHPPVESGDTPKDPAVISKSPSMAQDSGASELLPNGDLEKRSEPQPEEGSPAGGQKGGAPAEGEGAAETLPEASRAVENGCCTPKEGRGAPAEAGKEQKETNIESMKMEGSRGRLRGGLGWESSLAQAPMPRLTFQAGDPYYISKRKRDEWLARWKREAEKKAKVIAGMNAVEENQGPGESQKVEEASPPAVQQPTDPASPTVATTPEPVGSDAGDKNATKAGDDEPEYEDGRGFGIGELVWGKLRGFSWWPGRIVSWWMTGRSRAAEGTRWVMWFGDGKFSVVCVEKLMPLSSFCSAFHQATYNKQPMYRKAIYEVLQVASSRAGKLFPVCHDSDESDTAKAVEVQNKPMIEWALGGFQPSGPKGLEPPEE

B1: free 175 bp Widom601 DNA (dsDNA)
DNA 1: TATACGCGGCCGCCCTGGAGAATCCCGGTGCCGAGGCCGCTCAATTGGTCGTAGACAGCTCTAGCACCGCTTAAACGCACGTACGCGCTGTCCCCCGCGTTTTAACCGCCAAGGGGATTACTCCCTAGTCTCCAGGCACGTGTCAGATATATACATCCTGTGCAATGTGTTCCAT
DNA 2: ATGGAACACATTGCACAGGATGTATATATCTGACACGTGCCTGGAGACTAGGGAGTAATCCCCTTGGCGGTTAAAACGCGGGGGACAGCGCGTACGTGCGTTTAAGCGGTGCTAGAGCTGTCTACGACCAATTGAGCGGCCTCGGCACCGGGATTCTCCAGGGCGGCCGCGTATA
In the case of B1, the binding result was “binds”.
